Read-outs that look alike come from different tables or passages of the source.
Columns and labels:
HCoV-OC43 gRNA and sgRNA = format: binding; details: for target (unweighted spectral count, OC43 Probe II capture) / target (unweighted spectral count): tested against no-probe control; for target (unweighted spectral count, OC43 Probe II capture): FDR<10%; for target (unweighted spectral count): OC43 Probe II, infected cells; for target (unweighted spectral count, OC43 Probe II) / background (unweighted spectral count, no-probe control): type n_48_v, 48 hpi; for target (unweighted spectral count, OC43 Probe II): OC43 Probe II capture on infected cells; for background (unweighted spectral count, no-probe control): no-probe control on infected cells
gRNA of HCoV-OC43 = format: binding; details: type n_48_v: 48 hours post-infection; for target (spectral count, OC43 Probe I RNP capture): infected cells, unweighted spectral count; for background (spectral count, no-probe control): no-probe control on infected cells

Molecule | target (unweighted spectral count, OC43 Probe II capture) (HCoV-OC43 gRNA and sgRNA; 36 hpi, type n_36_v) | target (unweighted spectral count) (HCoV-OC43 gRNA and sgRNA; 12 hpi (type n_12_v)) | target (unweighted spectral count) (HCoV-OC43 gRNA and sgRNA; 24 hpi (type n_24_v)) | target (spectral count, OC43 Probe I RNP capture) (gRNA of HCoV-OC43) | background (spectral count, no-probe control) (gRNA of HCoV-OC43) | target (unweighted spectral count, OC43 Probe II capture) (HCoV-OC43 gRNA and sgRNA; 24 hpi, type n_24_v) | target (unweighted spectral count, OC43 Probe II) (HCoV-OC43 gRNA and sgRNA) | background (unweighted spectral count, no-probe control) (HCoV-OC43 gRNA and sgRNA) | target (spectral count) (HCoV-OC43 gRNA and sgRNA; type s_36_m, HCoV-OC43-infected HCT-8 cells, 36 hpi, Probe II) | background (spectral count) (HCoV-OC43 gRNA and sgRNA; type s_36_m, uninfected-probe control, 36 hpi, Probe II)
TOP1 (protein, UniProt P11387 2-765, looked up) DNA topoisomerase 1: SGDHLHNDSQIEADFRLNDSHKHKDKHKDREHRHKEHKKEKDREKSKHSNSEHKDSEKKHKEKEKTKHKDGSSEKHKDKHKDRDKEKRKEEKVRASGDAKIKKEKENGFSSPPQIKDEPEDDGYFVPPKEDIKPLKRPRDEDDADYKPKKIKTEDTKKEKKRKLEEEEDGKLKKPKNKDKDKKVPEPDNKKKKPKKEEEQKWKWWEEERYPEGIKWKFLEHKGPVFAPPYEPLPENVKFYYDGKVMKLSPKAEEVATFFAKMLDHEYTTKEIFRKNFFKDWRKEMTNEEKNIITNLSKCDFTQMSQYFKAQTEARKQMSKEEKLKIKEENEKLLKEYGFCIMDNHKERIANFKIEPPGLFRGRGNHPKMGMLKRRIMPEDIIINCSKDAKVPSPPPGHKWKEVRHDNKVTWLVSWTENIQGSIKYIMLNPSSRIKGEKDWQKYETARRLKKCVDKIRNQYREDWKSKEMKVRQRAVALYFIDKLALRAGNEKEEGETADTVGCCSLRVEHINLHPELDGQEYVVEFDFLGKDSIRYYNKVPVEKRVFKNLQLFMENKQPEDDLFDRLNTGILNKHLQDLMEGLTAKVFRTYNASITLQQQLKELTAPDENIPAKILSYNRANRAVAILCNHQRAPPKTFEKSMMNLQTKIDAKKEQLADARRDLKSAKADAKVMKDAKTKKVVESKKKAVQRLEEQLMKLEVQATDREENKQIALGTSKLNYLDPRITVAWCKKWGVPIEKIYNKTQREKFAWAIDMADEDYEF | 14 | 31 | 12 | 12 | 2 |  |  |  |  | 
ZNF326: host protein, UniProt Q5BKZ1 (protein, UniProt Q5BKZ1 1-582, looked up) DBIRD complex subunit ZNF326: MDFEDDYTHSACRNTYQGFNGMDRDYGPGSYGGMDRDYGHGSYGGQRSMDSYLNQSYGMDNHSGGGGGSRFGPYESYDSRSSLGGRDLYRSGYGFNEPEQSRFGGSYGGRFESSYRNSLDSFGGRNQGGSSWEAPYSRSKLRPGFMEDRGRENYSSYSSFSSPHMKPAPVGSRGRGTPAYPESTFGSRNYDAFGGPSTGRGRGRGHMGDFGSIHRPGIVVDYQNKSTNVTVAAARGIKRKMMQPFNKPSGTFIKKPKLAKPMEKISLSKSPTKTDPKNEEEEKRRIEARREKQRRRREKNSEKYGDGYRMAFTCSFCKFRTFEEKDIELHLESSSHQETLDHIQKQTKFDKVVMEFLHECMVNKFKKTSIRKQQTNNQTEVVKIIEKDVMEGVTVDDHMMKVETVHCSACSVYIPALHSSVQQHLKSPDHIKGKQAYKEQIKRESVLTATSILNNPIVKARYERFVKGENPFEIQDHSQDQQIEGDEEDEEKIDEPIEEEEDEDEEEEAEEVGEVEEVEEVEEVREGGIEGEGNIQGVGEGGEVGVVGEVEGVGEVEEVEELEEETAKEEPADFPVEQPEEN | 7 |  |  | 10 | 2 | 4 | 8 | 2 | 7 | 1
ADAR (protein, UniProt P55265 1-1226, looked up) Double-stranded RNA-specific …: MNPRQGYSLSGYYTHPFQGYEHRQLRYQQPGPGSSPSSFLLKQIEFLKGQLPEAPVIGKQTPSLPPSLPGLRPRFPVLLASSTRGRQVDIRGVPRGVHLRSQGLQRGFQHPSPRGRSLPQRGVDCLSSHFQELSIYQDQEQRILKFLEELGEGKATTAHDLSGKLGTPKKEINRVLYSLAKKGKLQKEAGTPPLWKIAVSTQAWNQHSGVVRPDGHSQGAPNSDPSLEPEDRNSTSVSEDLLEPFIAVSAQAWNQHSGVVRPDSHSQGSPNSDPGLEPEDSNSTSALEDPLEFLDMAEIKEKICDYLFNVSDSSALNLAKNIGLTKARDINAVLIDMERQGDVYRQGTTPPIWHLTDKKRERMQIKRNTNSVPETAPAAIPETKRNAEFLTCNIPTSNASNNMVTTEKVENGQEPVIKLENRQEARPEPARLKPPVHYNGPSKAGYVDFENGQWATDDIPDDLNSIRAAPGEFRAIMEMPSFYSHGLPRCSPYKKLTECQLKNPISGLLEYAQFASQTCEFNMIEQSGPPHEPRFKFQVVINGREFPPAEAGSKKVAKQDAAMKAMTILLEEAKAKDSGKSEESSHYSTEKESEKTAESQTPTPSATSFFSGKSPVTTLLECMHKLGNSCEFRLLSKEGPAHEPKFQYCVAVGAQTFPSVSAPSKKVAKQMAAEEAMKALHGEATNSMASDNQPEGMISESLDNLESMMPNKVRKIGELVRYLNTNPVGGLLEYARSHGFAAEFKLVDQSGPPHEPKFVYQAKVGGRWFPAVCAHSKKQGKQEAADAALRVLIGENEKAERMGFTEVTPVTGASLRRTMLLLSRSPEAQPKTLPLTGSTFHDQIAMLSHRCFNTLTNSFQPSLLGRKILAAIIMKKDSEDMGVVVSLGTGNRCVKGDSLSLKGETVNDCHAEIISRRGFIRFLYSELMKYNSQTAKDSIFEPAKGGEKLQIKKTVSFHLYISTAPCGDGALFDKSCSDRAMESTESRHYPVFENPKQGKLRTKVENGEGTIPVESSDIVPTWDGIRLGERLRTMSCSDKILRWNVLGLQGALLTHFLQPIYLKSVTLGYLFSQGHLTRAICCRVTRDGSAFEDGLRHPFIVNHPKVGRVSIYDSKRQSGKTKETSVNWCLADGYDLEILDGTRGTVDGPRNELSRVSKKNIFLLFKKLCSFRYRRDLLRLSYGEAKKAARDYETAKNYFKKGLKDMGYGNWISKPQEEKNFYLCPV |  |  |  | 11 | 2 |  | 11 | 2 |  | 
KRT10 (protein, UniProt P13645 1-584, looked up) Keratin, type I cytoskeletal …: MSVRYSSSKHYSSSRSGGGGGGGGCGGGGGVSSLRISSSKGSLGGGFSSGGFSGGSFSRGSSGGGCFGGSSGGYGGLGGFGGGSFRGSYGSSSFGGSYGGIFGGGSFGGGSFGGGSFGGGGFGGGGFGGGFGGGFGGDGGLLSGNEKVTMQNLNDRLASYLDKVRALEESNYELEGKIKEWYEKHGNSHQGEPRDYSKYYKTIDDLKNQILNLTTDNANILLQIDNARLAADDFRLKYENEVALRQSVEADINGLRRVLDELTLTKADLEMQIESLTEELAYLKKNHEEEMKDLRNVSTGDVNVEMNAAPGVDLTQLLNNMRSQYEQLAEQNRKDAEAWFNEKSKELTTEIDNNIEQISSYKSEITELRRNVQALEIELQSQLALKQSLEASLAETEGRYCVQLSQIQAQISALEEQLQQIRAETECQNTEYQQLLDIKIRLENEIQTYRSLLEGEGSSGGGGRGGGSFGGGYGGGSSGGGSSGGGHGGGHGGSSGGGYGGGSSGGGSSGGGYGGGSSSGGHGGSSSGGYGGGSSGGGGGGYGGGSSGGGSSSGGGYGGGSSSGGHKSSSSGSVGESSSKGPRY |  |  |  | 14 | 3 |  | 22 | 3 |  | 
DKC1 (protein, UniProt O60832 2-514, looked up) H/ACA ribonucleoprotein …: ADAEVIILPKKHKKKKERKSLPEEDVAEIQHAEEFLIKPESKVAKLDTSQWPLLLKNFDKLNVRTTHYTPLACGSNPLKREIGDYIRTGFINLDKPSNPSSHEVVAWIRRILRVEKTGHSGTLDPKVTGCLIVCIERATRLVKSQQSAGKEYVGIVRLHNAIEGGTQLSRALETLTGALFQRPPLIAAVKRQLRVRTIYESKMIEYDPERRLGIFWVSCEAGTYIRTLCVHLGLLLGVGGQMQELRRVRSGVMSEKDHMVTMHDVLDAQWLYDNHKDESYLRRVVYPLEKLLTSHKRLVMKDSAVNAICYGAKIMLPGVLRYEDGIEVNQEIVVITTKGEAICMAIALMTTAVISTCDHGIVAKIKRVIMERDTYPRKWGLGPKASQKKLMIKQGLLDKHGKPTDSTPATWKQEYVDYSESAKKEVVAEVVKAPQVVAEAAKTAKRKRESESESDETPPAAPQLIKKEKKKSKKDKKAKAGLESGAEPGDGDSDTTKKKKKKKKAKEVELVSE |  |  |  | 6 | 1 |  | 9 | 1 |  | 
EIF2AK2 (protein, UniProt P19525 2-551, looked up) Interferon-induced, …: AGDLSAGFFMEELNTYRQKQGVVLKYQELPNSGPPHDRRFTFQVIIDGREFPEGEGRSKKEAKNAAAKLAVEILNKEKKAVSPLLLTTTNSSEGLSMGNYIGLINRIAQKKRLTVNYEQCASGVHGPEGFHYKCKMGQKEYSIGTGSTKQEAKQLAAKLAYLQILSEETSVKSDYLSSGSFATTCESQSNSLVTSTLASESSSEGDFSADTSEINSNSDSLNSSSLLMNGLRNNQRKAKRSLAPRFDLPDMKETKYTVDKRFGMDFKEIELIGSGGFGQVFKAKHRIDGKTYVIKRVKYNNEKAEREVKALAKLDHVNIVHYNGCWDGFDYDPETSDDSLESSDYDPENSKNSSRSKTKCLFIQMEFCDKGTLEQWIEKRRGEKLDKVLALELFEQITKGVDYIHSKKLIHRDLKPSNIFLVDTKQVKIGDFGLVTSLKNDGKRTRSKGTLRYMSPEQISSQDYGKEVDLYALGLILAELLHVCDTAFETSKFFTDLRDGIISDIFDKKEKTLLQKLLSKKPEDRPNTSEILRTLTVWKKSPEKNERHTC | 4 |  |  | 8 | 1 |  | 8 | 1 |  | 

— US20230407373A1 (priority 2020, published 2023)
